According to the supplement of paper PMC10567573:

B1: SAT2 (parent)
chain: GYGIYYFIYSTWKGRTIYLEDIYV
B2: RHOBTB2 (parent)
chain: LYTGELDENERDLMHIAHIAELLE

Variants of: B1
Test: protein stability index of a GFP-peptide fusion (GPS, HEK-293T) (PSI 1-6); higher = more stable
Details: c terminus: a fixed tail appended
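Also: lentivirally expressed fusions sorted by FACS into six bins by GFP to DsRed ratio, PSI derived from sequencing read proportions per bin multiplied by bin number.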

Protein stability index: each site, then its substitutions
I8: D 3.24; R 3.57; V 2.02; Q 1.27; E 3.68; H 2.93; F 3.4; L 2.2; S 3.1; C 1.7; Y 3.28; A 1.76; T 4.7
G1: H 2.72; M 3.54; C 1.66; S 2.41; L 3.6; I 1.2; F 2.13; E 2.96; Y 3.1; R 2.21
I4: W 2.71; A 3.19; D 2.92; H 2.53; G 1.88; C 3.26; N 3.27; M 3.54; V 1.71; K 2.7
F7: A 2; K 3.88; R 2.72; P 3.4; N 3.37; D 3.03; G 3.36; S 2.8; L 2.92; V 3.39; Q 5.82; E 2.37; W 2.65
Y6: C 2.94; E 2.64; R 3.12; F 3.09; A 2.88; L 1.83; Q 3.44
W12: C 2.1; E 2.55; D 2.25
T11: H 3.48; Y 2.83; A 2.97; V 3.88; I 2.78; N 4.08; C 4.22; M 3.99; D 3.32; Q 2.72; S 2.44; R 2.28; W 3.78; F 2.43
Y9: G 2.77; S 1.59; D 3.06; M 3.46; V 1.67; C 2.94; R 3.86; N 2.2; L 2.57; P 2.71; I 1.62; T 2.78
Y5: K 2.61; W 2.09; G 3.41; T 2.53; R 2.39; D 2.62; I 2.59; C 2.85; L 2.15; H 2.42
Y2: D 2.06; C 2.61; P 1.91; M 2.92; N 3.27; Q 4.95; R 2.58; F 1.06; W 2.38; S 3.01; I 3.75; V 2.26; H 3.91
S10: Q 2.29; N 2.55; M 3.91; E 3.09; W 2.26; C 2.53; P 3.17; Y 2.76
G3: Y 2.19; K 2.62; F 4.2; E 2.58; R 2.96; C 2.12; P 2.7; D 2.8; S 3.29; I 1.59; H 2.85

Variants of: B2
Test: as above
Details: c terminus: a fixed tail appended

Protein stability index: each site, then its substitutions
E8: W 2.88; K 2.28; S 2.29; P 2.15; R 2.46; D 3.23; Y 2.23; L 1.57; M 1.78; Q 2.85
G4: M 1.77; N 2.05; W 1.5; Y 2.2; A 2.31
L23: S 4.25; W 2.55; P 4.28; T 3.99; R 4.05; M 3.3
T3: L 1.94; S 2.61; M 2.23; Q 2.58; H 2.08; N 2.25; C 2.31; K 2.16; A 2.58; E 2.98; R 1.98; W 1.54; Y 2.08
H15: C 2.13; I 1.93; V 1.62; R 2.42; K 2.21; S 2.54; Y 1.67; W 2.47
L13: T 3.34; A 3.08; N 3.28; I 2.38; F 3.13; V 3.22; Y 2.59
D7: G 2.15; N 2.17; C 1.88; I 1.77; A 2.48; L 3.31; M 1.97; F 2.3
I16: E 4.85; P 4.15; K 4.05; V 2.76; L 2.09; A 4.07; G 4.06; M 2.51
L22: P 4.75; H 3.76; E 4.08; F 3.41; G 3.6; Q 3.74; N 3.5; S 3.66; R 3.62
H18: A 1.65; W 2.11; Y 1.59; F 1.72; D 2.87; V 2.05; S 3.03; Q 1.82; L 1.23; N 3.47; P 2.88; E 3.32
N9: H 2.54; Y 1.64; L 1.51; K 2.68; D 2.59; A 2.57; P 2.03; I 3.37; R 2.79
I19: L 2.31; C 3.3; W 2.28; G 4.45; E 4.85; H 3.62; P 4.81; Y 3.56; D 4.85
E5: T 2.75; M 2.1; I 1.65; H 2.24; D 2.63; P 2.52; Q 2.22
R11: I 2.57; T 2.14; M 1.96; D 2.9; Y 2.42; P 2.67; Q 1.96; K 2.77; F 1.83; N 2.1; V 2.04
D12: K 3.02; Y 1.66; E 2.47; C 2.53; F 2.78; M 2.95; W 2.49; H 3.13; G 2.74; A 2.01
Y2: G 3.25; Q 3.01; E 3.49; N 3.17; L 2.37; W 1.69; D 3.68; P 3.2; F 2.78; K 2.74; M 2.73; S 3.34
E10: H 2.05; C 2.6; Y 1.95; V 1.89; W 2.41; T 2.66; P 1.88; F 2.53; D 2.87; I 2.26; K 1.94; G 2.02
A17: V 1.66; K 2.72; I 2.1; R 2.7; C 1.77; T 1.82; S 3.02; G 2.77
A20: V 1.93; C 1.31; P 3.79; K 2.99; N 3.74; I 2.14; E 3.85; R 3.22; W 2.37
M14: K 2.89; G 3.36; D 3.41; H 3.1; Q 2.39; P 3.48; T 3.04; L 2.58; F 2.54; R 2.36
L6: G 3.11; H 2.96; P 2.95; I 2.64; M 2.56; D 3.27; E 3.4
L1: E 2.72; F 3.02; I 2; M 2.72; Y 2.78; S 2.52; A 2.62
E24: I 2; D 2.94; G 2.85; N 2.42; T 2.3; C 2.04; Q 2.38; L 2.18
E21: G 1.92; F 1.74; R 1.85; D 2.77; A 1.72
